Data: patent publication US20210138058A1

Target: human TLR5 (HEK-Blue hTLR5 reporter cells) (human) (UniProt O60602)
Test: cell-based or functional assay

UniProt O60602, sequence (O60602 21-858): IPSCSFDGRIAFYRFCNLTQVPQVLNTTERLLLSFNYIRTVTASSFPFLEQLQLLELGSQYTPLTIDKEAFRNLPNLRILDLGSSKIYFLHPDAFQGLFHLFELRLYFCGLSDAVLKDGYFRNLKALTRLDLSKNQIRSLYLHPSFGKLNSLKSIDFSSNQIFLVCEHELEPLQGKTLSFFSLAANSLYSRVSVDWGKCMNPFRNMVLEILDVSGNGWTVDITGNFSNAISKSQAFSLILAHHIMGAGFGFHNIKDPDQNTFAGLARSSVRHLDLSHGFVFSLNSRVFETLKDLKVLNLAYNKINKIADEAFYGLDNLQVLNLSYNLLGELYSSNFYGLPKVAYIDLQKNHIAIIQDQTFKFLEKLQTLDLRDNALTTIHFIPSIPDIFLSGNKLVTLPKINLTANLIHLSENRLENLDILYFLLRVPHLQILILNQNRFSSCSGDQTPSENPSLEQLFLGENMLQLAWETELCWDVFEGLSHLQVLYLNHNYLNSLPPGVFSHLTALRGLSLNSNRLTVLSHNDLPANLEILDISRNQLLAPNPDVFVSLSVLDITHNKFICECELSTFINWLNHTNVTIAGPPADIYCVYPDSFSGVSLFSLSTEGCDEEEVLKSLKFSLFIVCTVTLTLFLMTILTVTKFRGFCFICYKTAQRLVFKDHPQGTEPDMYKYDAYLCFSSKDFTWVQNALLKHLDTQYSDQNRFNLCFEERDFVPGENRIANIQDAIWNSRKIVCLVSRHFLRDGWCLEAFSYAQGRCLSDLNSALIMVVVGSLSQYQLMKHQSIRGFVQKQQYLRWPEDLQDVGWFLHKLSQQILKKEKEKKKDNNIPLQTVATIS

Recombinant purified flagellin protein FlaAMRx0518 (Enterococcus gallinarum MRx0518 flagellin, N-terminal 6xHis tag) (ligand)
potency of TLR5 response against FlaADSM100110 (HEK-Blue hTLR5 SEAP reporter) (fold against FlaADSM100110): 5
